T1: protein-W (PufW), C-terminally 10× His-tagged (Rhodopseudomonas palustris CGA009, UniProt Q6N1K3 1-102)
T1 construct: protein-W (PufW, RPA4402) of Rhodopseudomonas palustris, a 10.5-kDa protein with three transmembrane helices; C-terminal amino acids are unresolved in the map; also called PufW-His; RPA4402; source: Rps. palustris CGA009 PufW-His strain, expressed from the native pufW locus; purified within RC-LH1_(14)-W (Ni-NTA IMAC, DEAE, SEC); not shown: 10× His, C-terminal, kept
T1 sequence: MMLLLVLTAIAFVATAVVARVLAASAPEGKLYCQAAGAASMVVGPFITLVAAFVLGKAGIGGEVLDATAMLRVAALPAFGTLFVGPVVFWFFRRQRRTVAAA

B1: LH1-β (PufB) (natural protein)
chain: not shown
notes: LH1-β (PufB) of Rhodopseudomonas palustris; mass spectrometry of wild-type RC-LH1: residues Ser2 to Ala53; resolved Gly4 to Tyr52 in RC-LH1_(16) and Ser5 to Tyr52 in RC-LH1_(14)-W, no density for 13 C-terminal residues; 14 copies in RC-LH1_(14)-W, 16 copies in RC-LH1_(16); The termini were found by mass spectrometry on mixed complexes of the wild-type strain; also called β-polypeptide; source: …
B2: RC-H (PuhA) (natural protein, Rhodopseudomonas palustris CGA009, UniProt A0A4Z9 1-255, looked up)
chain: MQPGAYLDLAQVTLYVFWIFFAGLLFYLRREDKREGYPLVADAGSGTRLAKIGVPAPPDPKTYLLRGGATKTVPSTSNDRPNVALTPAAPWPGAPFVPTGNPFADGVGPGSYAQRADVPELGLDNLPIIVPLRAAKGMFLDPRDPNPVGMPVVGCDGVVGGTVTEVWVDRAEVLARYLEVEVAKSRKRVLLPVPFALINDPFGKVSVDAIRGDQFAGVPTTSKGDQVSKLEEDKICAYYGAGTLYATPLRSESLV
notes: reaction center H subunit (PuhA) of Rhodopseudomonas palustris; C-terminal amino acids are unresolved in the map; also called subunit H; source: endogenous, Rps. palustris CGA009 (ΔpufW and PufW-His strains); purified within RC-LH1 complexes from β-DDM-solubilized membranes

How the values were obtained:
Assay in all cases: cryo-EM structure; RC-LH1_(14)-W complex purified from the PufW-His strain; in IMAC buffer (20 mM tris-HCl pH 8.0, 200 mM NaCl, 0.03% β-DDM); 2.65 Å
Details in all cases: both partners purified
[1] = molecular target: T1, protein-W (PufW), C-terminally 10× …
RC-L (PufL) = molecular target: T2, RC-L (PufL) (Rhodopseudomonas palustris CGA009, UniProt O83005 1-277)
T2 construct: reaction center L subunit (PufL) of Rhodopseudomonas palustris; also called subunit L; L polypeptide; source: endogenous, Rps. palustris CGA009 (ΔpufW and PufW-His strains); purified within RC-LH1 complexes from β-DDM-solubilized membranes

RC-M (PufM) = molecular target: T3, RC-M (PufM) (Rhodopseudomonas palustris CGA009, UniProt A0A4Z7 1-307)
T3 construct: reaction center M subunit (PufM) of Rhodopseudomonas palustris; also called subunit M; M polypeptide; source: endogenous, Rps. palustris CGA009 (ΔpufW and PufW-His strains); purified within RC-LH1 complexes from β-DDM-solubilized membranes

Binder	binding result [1]	binding result (RC-L (PufL))	binding result (RC-M (PufM))
B1	binds		
B2		binds	binds

Reference: publication PMC7806223, “Structures of Rhodopseudomonas palustris RC-LH1 complexes with open or closed quinone channels” (Science Advances, 2021)
